Values of other authors, collected in patent US11173109B2, “Compositions in the form of an injectable aqueous solution comprising amylin, an amylin receptor agonist or an amylin analog and a co-polyamino acid” (ADOCIA, priority 2017, dated 2021).
No end group written: not given here.

Conditions: neutral pH

amylin: peptide of 37 amino acids which is co-stored and co-secreted with insulin (KCNTATCATQRLANFLVHSSNNFGAILSSTNVGSNTY; not fully specified (C-terminus, bridges); cysteine pairing not given here; UniProt P10997 34-70, looked up)
time for which amylin is stable: less than one
